Results published in US10487337B2, “Methods for monocot plant improvement” (Agresearch Limited, priority 2014, dated 2019).

B1: Amborella trichopoda PPD: PEAPOD protein of Amborella trichopoda, SEQ ID NO: 12 (protein, listed as Amborella trichopoda)
chain: MTAGDGSIRSILDKPLEELTEEDISQLTREDCRRYLKEKGMRRPSWNKYQAIQQVLSLKGLLEGKPCDDNSDVFSHRSPITVIPNVGSMREKEKAVNIADPEISGSHQPNFRREIHETTRERALPASDWPPSQEPVSQMTIFYAGAVNVYNDIPEDKVQAIIYLAGKSDSLQQTNVIRTGPDQCIASAASPSLNDLHSRRIHPTSNITTSQSLRVATSLPVGPHSEVPKTRKTSVQRFLEKRKDRGRLKGTLASGGSSKRGSSCLELYATSRLKSEGVATTTTQSNMNNVVVSPSNPRMPLNPGSCSWVEN
B2: Selaginella moellendorffii PPD: PEAPOD protein of Selaginella moellendorffii, SEQ ID NO: 110/116 (protein, listed as Selaginella moellendorffii)
chain: MSSMVDFLGIEEKVSTSVSAERLKKLEELTDEDVMQLTREDCRRYLKEKGMRRPSWNKAQAVQQLLSLKSLCDPSPASSGAAKRSPSPPLDEAPAKKPMAMTSIDLKAAAAVDAANLTMFYDGAVSVFDDVSPDKASLFPLAYAIMLLAGNVKSWPSINVAANTNKVVISSYELPQARKASLQRFLQRRREKTAKEAASKGNSNKSPCHGESSGKHASDATDPATSPLLTEVSSGSGGGSAKGELRGHPFEGKPIPNPLLGLDSTRTGHHHHHHGS
B3: Trifolium repens PPD: PEAPOD protein of Trifolium repens, SEQ ID NO: 11 (protein, listed as Trifolium repens)
chain: MNGGSTVSFRSILDKPLNQLTEDDISQLTREDCRRFLKDKGMRRPSWNKSQAIQQVISLKALLEPTDDDLPAPVGVSSAIHHHHHHHPQPPQRNLNEAPVKGSDLDDTGFHTAEDLNKSTSTAVEIPTETNDANVVKSSGGCVASGSFGQMTIFYCGKVNVYDGVSPDKARSIMQLAACPSSFPQDNLLNKNAAVWASPCNIPIDKDVLFPNDTAILQVAQTDKMVEYPLQYREKGSIARDADVEGQASRNASLQRYREKRKDRGRSKGNKLTGITSSNFEMYLNLPVKLHASNGNSSRSSTDSPPQPRLPLVSGGSAENQPKVTLPIDLNDKDVQEC
B4: Picea sitchensis PPD: PEAPOD protein of Picea sitchensis, SEQ ID NO: 5 (protein, listed as Picea sitchensis)
chain: MRGGERAPGSRPSLDKPLEELTEEDIFQLTREDCRRYLKEKGMRRPSWNKSQAIQQVLSLKSLFESKPNQQSKKPSKHKPATLQFETARDSTFAQSSVSQEQSLGFSWSKEVLDKGTAERQRLCSDSQEAHEIPRLGSKPPQSNTEGKRCAHDGHGRKSAQPLVRLPANFKNDCSNRQSSHTSESQPDTLLRSDSFQQPTAQLTIFYAGMVNVYDDVPLDKA
B5: Musa acuminate PPD: PEAPOD protein of Musa acuminate, SEQ ID NO: 108/114 (protein, listed as Musa acuminata)
chain: MNPGETTPPSPLDKPLAELTEEDIAQLTREDCRRFLKAKGMRRPSWNKSQAIQQVISLKALLEGRPGCDDCPAGGGILQKLLTSSPSEPLSPPQDSPPPAPKEGGSGSQPLAKEPSPYRRRDPIPPPYSAGNPTCQTPIAGADLPHPPEKRCPSPRLTAEVPVGQMTIFYDGMVNVYDGVSADQARSIMELAASPVCFDDPTGAFSPARPPAFRFPPGLPRPAPVPTAPSFVGTFPISPAGKRCYSYCSFRSSVSLLTTTEGPTSRKASLQRYLEKRKDRYGHLPTESILLVSGSGGGSAKGELRGHPFEGKPIPNPLLGLDSTRTGHHHHHHGS

What was measured:
[1] = tested on: Wild-type (Col-0), Δppd mutant and transgenic PPD-OX seedlings; assay: Hypocotyl elongation of seedlings on exogenous GA or PAC; assay type: in vivo, Arabidopsis thaliana
Excerpt: Giberellic acid (GA) treatment is known to reduce levels of the DELLA proteins (including RGA1) which are GA repressors; to determine the relationship between PPD, DELLA and the GA signalling pathway the applicants performed a yeast two-hybrid (Y2H) analysis between PPD and DELLA (RGA1) and applied gibberellic acid (GA) hormone and GA biosynthesis inhibitor (paclobutrazol, PAC) to wild type, Δppd mutant, and the Δppd mutant PPD over expressor (PPD-OX).
For exogenous applications of GA or PAC seeds were surface sterilised with 70% ethanol, 0.01% Triton X-100 for 10 min, followed by 100% ethanol for 5 min, air dried on sterile filter paper, and transferred to media plates containing half-strength MS salts, 1% sucrose and 0.8% agar. Plates were incubated for 5 days at 4° C. in the dark then transferred to 24° C. with a 14 h light/10 h dark daily cycle. Light was provided by fluorescent tubes (Philips TLD 58W/865) at an intensity of 100 μM m^−2s^−1. Wild-type (Col-0) Δppd mutant and transgenic PPD-OX seedlings were grown for five days on medium with different concentrations of GA (FIG. 11A) or PAC (FIG. 11B). GA (ACROS organics), and PAC (Sigma-Aldrich) were dissolved in ethanol and acetone respectively, filter sterilised and incorporated into media plates. Ethanol or acetone (0.5%) was used for mock treatments. Seedlings were grown at 24° C. under a 14 h light/10 h dark daily cycle for 5 days before hypocotyl lengths were analysed (n=35). Each treatment was repeated twice; error bars=standard error of the mean.

ryegrass plants [2] = assay: Leaf biomass analysis of grass transformants; assay type: in vivo; settings: constitutive promoter, observed leaf growth, approximately 6 weeks
Experimental: (§1) An equal number (typically 4-10) of tillers were taken from WT and ryegrass plants transformed with Arabidopsis PPD under one of two green tissue promoters. Tillers were planted into plastic grow bags containing potting mix and pruned to be of equal height. […] The increase in leaf/shoot biomass can be quantified removing the attached above ground portion (leaves and shoots) and drying them at 65° C. for 48 hr then weighing the dry weights.
as §1, with “a constitutive promoter.” for “one of two green tissue promoters.”, “was” for “can be”, “weights (Table 2).” for “weights.”

ryegrass plants [3] = assay: Root biomass analysis of grass transformants; assay type: in vivo; settings: constitutive promoter, root growth beyond the grow bag, approximately 6 weeks
Experimental: as §1, with “three root” for “two green tissue”, “root” for “leaf/shoot”, “was” for “can be”, “the roots” for “them”, “weights (Tables 3 and 4)” for “weights.”
as §1, with “a constitutive promoter.” for “one of two green tissue promoters.”, “root” for “leaf/shoot”, “was” for “can be”, “the roots” for “them”, “weights (Table 5).” for “weights.”

Arabidopsis Δppd mutant = assay: Complementation of the Arabidopsis Δppd mutant leaf phenotype; assay type: in vivo; settings: CaMV35s promoter, Arabidopsis thaliana ecotype Landsberg erecta, FIG. 13
Excerpt: The functionality of any PEAPOD sequence can be confirmed by complementation of the Arabidopsis Δppd mutant leaf phenotype. Complementation of the Arabidopsis Δppd mutant leaf phenotype was first used to identify the Arabidopsis PPD gene (White 2006). This was seen by a restoration of the wild type flattened leaf phenotype and normal rosette shape as opposed to the domed leaf and the twisting of the rosette to a “propeller” phenotype.
Arabidopsis thaliana (L.) Heynh ecotype Ler can be used as wild-type (WT). The Δppd loss of function deletion mutant (with PPD1 and PPD2 deleted) is as previously described in White 2006, PNAS 103, 13238-13243.
Plants are grown in a temperature-controlled glasshouse at a continuous 21° C. or in a controlled environment cabinet at 23° C. in 16-h light_8-h dark cycles.
Constructs above can be transformed into Arabidopsis by the floral dip infiltration method (Clough and Bent, 1998, Plant J 16, 735-43). The Δppd line is transformed to express the PPD polypeptides by standard techniques. Transgenic plants are confirmed by standard PCR analysis techniques with a combination of transgene-specific and T-DNA primers.
Complementation of the Δppd line to produce a wild-type leaf and rosette phenotype in T1 seedlings (the off-spring of the infiltrated plant) confirms PEAPOD functionality of the introduced gene, which can be shown in photographs.

Molecule	leaf biomass/growth/length/branching compared to WT plants (ryegrass plants [2])	root biomass/growth/length/branching compared to WT plants (ryegrass plants [3])	PEAPOD functionality by complementation of the Δppd deletion mutant (Arabidopsis Δppd mutant)	other results
C=C1C[C@]23C[C@@]1(O)CC[C@H]2[C@@]12C=C[C@H](O)[C@@](C)(C(=O)O1)[C@H]2[C@@H]3C(=O)O [GA, gibberellic acid]	–	–	–	hypocotyl elongation ([1]; PPD-OX seedlings, 1 μM GA, 5 days): increased hypocotyl elongation; hypocotyl elongation ([1]; PPD-OX seedlings, up to 10 μM GA, 5 days): hypersensitive elongation; hypocotyl elongation ([1]; WT seedlings, 5-50 μM GA, 5 days): elongation of the WT hypocotyl occurred in a dose dependent manner; hypocotyl elongation ([1]; wild type (WT) seedlings, 1 μM GA, 5 days): did not promote elongation; hypocotyl elongation ([1]; Δppd seedlings, 1 μM GA, 5 days): increased hypocotyl elongation; hypocotyl elongation ([1]; Δppd seedlings, up to 5 μM GA, 5 days): hypersensitive elongation
CC(C)(C)[C@@H](O)[C@@H](Cc1ccc(Cl)cc1)n1cncn1 (racemic) [PAC, paclobutrazol]	–	–	–	hypocotyl length ([1]; PPD-OX seedlings, PAC beyond 0.1 μM): decrease in hypocotyl length; hypocotyl elongation ([1]; PPD-OX seedlings, PAC up to 0.1 μM): relatively insensitive; hypocotyl elongation ([1]; wild type seedlings, 0 to 10 μM PAC, 5 days): dose dependent decrease of hypocotyl elongation; hypocotyl elongation ([1]; Δppd seedlings, 0 to 10 μM PAC, compared with wild type): larger reduction in hypocotyl elongation
B1	increase in leaf biomass/growth/length/branching	increase in root biomass/growth/length/branching	functionally equivalent	–
B2	increase in leaf biomass/growth/length/branching	increase in root biomass/growth/length/branching	functionally equivalent	–
B3	increase in leaf biomass/growth/length/branching	increase in root biomass/growth/length/branching	functionally equivalent	–
B4	increase in leaf biomass/growth/length/branching	increase in root biomass/growth/length/branching	functionally equivalent	–
B5	increase in leaf biomass/growth/length/branching	increase in root biomass/growth/length/branching	functionally equivalent	–
